In patent US20240409617A1:

Target: Human FcRn, biotinylated (human) (UniProt P55899)

Kd: 19.7 nM | koff: 0.00877 s⁻¹ | kon: 445000 M⁻¹ s⁻¹
Substance: Atezolizumab (antibody)
